Common to all, as to assay: EMSA
Data set [1] concerns the target RhsP2tox WT (Pseudomonas aeruginosa PA14) (UniProt A0A0H2Z8A2).
Data set [2] addresses RhsP2tox K1564E K1564E (Pseudomonas aeruginosa PA14) (UniProt A0A0H2Z8A2).
The target in data set [3] is RhsP2tox K1580E K1580E (Pseudomonas aeruginosa PA14) (UniProt A0A0H2Z8A2).
Data set [4] concerns the target RhsP2tox K1574E K1574E (Pseudomonas aeruginosa PA14) (UniProt A0A0H2Z8A2).
Data set [5] deals with RhsP2tox K1579E K1579E (Pseudomonas aeruginosa PA14) (UniProt A0A0H2Z8A2).
Data set [6] deals with RhsP2tox R1563E R1563E (Pseudomonas aeruginosa PA14) (UniProt A0A0H2Z8A2).
The target of data set [7] is RhsP2tox K1567E K1567E (Pseudomonas aeruginosa PA14) (UniProt A0A0H2Z8A2).
Data set [8] deals with RhsP2tox WT (Pseudomonas aeruginosa PA14).

A word on the Kd: it is the concentration at which binding is half-saturated. As for “GGGACCGGCGCAGAGGAGACAAUGCCGGAUUUAAGACGCGGAUGCACUGCUGUGUGUACUGUAGAGUCUGGCGGAUGUCGACAGACUCUAUUUUUUU [McaS sRNA]”, the Kd in data set [1] was determined as 6.9 µM. The binding entry in data set [2] is on record as “binds more weakly”; in data set [3] it was “binds more weakly”; in data set [4], “no binding”; in data set [5] it was “binds more weakly”; in data set [6], “binds more weakly”; in data set [7] it was “binds more weakly”.

Turning to synthetic 50-nt RNA, the Kd in data set [8] worked out at 2200 nM.

For CsrB sRNA, the Kd in data set [8] stood at 670 nM.

Substance McaS sRNA returned a Kd in data set [8] of 6900 nM.
